Target: T1, human NT5E-Biotin (for NT5E, GenbankID: NP_002517.1, position: 1-552) (human, UniProt P21589 27-552, biotin label, site not stated)
T1 construct: range 1-552; Positions 1-552 as printed include the signal peptide; No cleavage site is stated; also called HNT5E-Biotin; antigen human NT5E-Biotin
T1 sequence (looked up): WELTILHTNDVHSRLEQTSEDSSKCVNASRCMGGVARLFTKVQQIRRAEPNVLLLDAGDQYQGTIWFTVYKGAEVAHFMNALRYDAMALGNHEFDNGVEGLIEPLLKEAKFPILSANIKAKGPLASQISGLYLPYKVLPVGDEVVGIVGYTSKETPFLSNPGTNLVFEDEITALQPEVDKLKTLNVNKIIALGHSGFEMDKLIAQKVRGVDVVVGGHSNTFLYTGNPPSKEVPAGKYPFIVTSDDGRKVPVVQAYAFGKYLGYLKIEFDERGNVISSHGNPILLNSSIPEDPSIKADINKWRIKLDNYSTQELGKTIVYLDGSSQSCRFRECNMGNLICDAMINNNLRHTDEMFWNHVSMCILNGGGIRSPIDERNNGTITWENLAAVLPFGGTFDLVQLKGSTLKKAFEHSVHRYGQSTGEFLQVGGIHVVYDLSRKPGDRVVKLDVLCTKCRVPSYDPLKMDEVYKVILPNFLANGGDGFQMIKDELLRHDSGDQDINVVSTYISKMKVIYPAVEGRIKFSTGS
Test: ELISA, NT5E-Biotin on streptavidin plate

B1: murine anti-CD73 monoclonal antibody 19F3 (antibody, V domains shown)
VH: EVQLQQSGPELVKPGASMRMSCKASGYSFTGYTMNWVKQSHGKNLEWIGLINPYNAGTSYNQKFKGKATLTVDKSSSTAYMELLSLTSEDSAVYYCARSEYRYGGDYFDYWGQGTTLTVSS
VL: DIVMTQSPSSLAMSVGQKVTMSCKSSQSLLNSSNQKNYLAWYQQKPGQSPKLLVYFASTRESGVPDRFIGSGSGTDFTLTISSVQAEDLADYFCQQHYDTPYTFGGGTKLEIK
notes: also called murine antibody 19F3
- EC50: 0.018 nM

Source: patent EP4790071A2 (Akeso Biopharma, Inc., dated 2026)
